Measured values as given in the RNAGym collection of RNA variant scans (doi:10.1073/pnas.2313332121).
Fewer inactive variants are shown than the library holds.

B1: TPR 5TU (parent)
chain: GGAUCUUCUCGAUCUAACAAAAAAGACAAAUCUGCCACAAAGCUUGAGAGCAUCUUCGGAUGCAGAGGCGGCAGCCUUCGGUGGCGCGAUAGCGCCAACGUUCUCAACUAUGACACGCAAAACGCGUGCUCCGUUGAAUGGAGUUUAUCAUG

Variants of: B1
Test: polymerase ribozyme fitness, log enrichment relative to wild type (log ratio); higher = more active; in vitro selection for triplet polymerase activity
How it was run: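 After PCR construction and transcription, each subunit's mutant library from a heterodimeric triplet polymerase ribozyme was annealed with a biotinylated primer, the partner subunit and triplets. Incubation was frozen, at −7 °C, and extended constructs were gel-excised, bound to streptavidin beads and amplified by RT-PCR, in one selection round done in triplicate. Fitness is the logarithm of a genotype's enrichment divided by that of the wild type, from inverse-variance-weighted replicate averages of Illumina-sequenced inputs and outputs. The base of the logarithm is 2, and genotypes needed ≥10 input reads and ≥1 read per output.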

Row | Variant | polymerase ribozyme fitness (log ratio)
1 | GGAUCUUCUCGCUCUAACAAAAAAGACAAAUCUGCUACAAAGCUUGAGAGCAUCUUCGGAUGCAGAGGCGGCAGCCUUCGGUGGUGCGAUAGCGCCAACGUUCUCAACUAUGACACGCAAAACGCGUGCUCCGUUGAAUGGAGUUUUUCAUG | -1.81
2 | GGAUCUUCUCGAUCUAAGUAAAAAUACAAAUCUGCCACAAAGCUUGAGAGCAUCUUCGGAUGCAGAGGCGGCAGCCUUCGGUGGCGCGUUAGCACCAACGUUCUCAACUAUGACACGCAAAACGCGUGCUUCGUUGAAUGGAGUUUAUCAUG | -3.92
3 | GGAUCUUCUCGAUCUAACAAAAAAGACAAAUCUGCCACAAAGCUUGAGAGCAUCGUCGGAUGCAGAGGCGGCAGCCUUCGGUGGCGCGAUAGCACCAUCGUUCUCAACUAUGACACGCAAAACGCGUGCUCCGUUGAAUGGAGUUUAUCAUG | -0.256
4 | GGAUCUUCGCUAUCUAACAAAAAAGACAAAUCUGCCACAAAGCAUGAGACCAUCUUCGGAUGCAGAGGCGGCAGCCUUCGGUGGCGAGAUAGCGCCAACGUUCUGAACUAUGACACGCAAAACGCGUGCUCCGUUGAAUGGAGUUUAUCAUG | ≤ -4.2
5 | GGAUCUUCUCGAUUUAACAAAAAAGACAAAUCUGCCACAAAGCUUGAGAGCAUCUUCGGAUGCAGAGGCGGCAGCCUUCGGUGGCGCGUUAGUGCCAACGUUCUCAACUAUGACACGCAAAACGCGUGCUCCGUUGAAUGGAGUUUAUCAUG | -3.88
6 | GGAUCUUCUGGAGCUAACAAAAAAGACAAAUCUGCCACAAAGCUUGAGAGCAUCUUUGGAUGCAGAGGCGGCAGCCUUCGGUGGUGCGAUAGCGCCAACGUUCUCAACUAUGACACGCAAAACGCGUGCUCCGUUGAAUGGAGUUUAUCAUC | ≤ -4.2
7 | GGAUCUUCUCGAUCUAACAAAAAAGACAAAUCUGCCACAAAGCUUGAGAGCAUCUUCGGAUGCAGAGGCGGCAGCCUUCGGUGGCGCGAUAGCGCUAAAGUUCUCAACUAUGACACGCAAAACGCGUGCUCCGUUGAAUGGAGUUUAUCAUG | -1.51
8 | GGAUCUUCUCGAACUAACAAAAAAGACAAAUCUGCCACAAAGCUUGAGAGCAUCUUCGGAUGCAGAGGCGGCAGCCUUCGGUGGUGCGAUAGCGCCAACGUUCUCAACUAUGACACGCAAAACGCGUGCUCCGUUUAAUGGAGUUUAUCAUG | -3.3
9 | GGAUCUUCUCGACCUAACAAAAAAGACAAAUCUGCCACAAAGCUUGAGAGCAUCUUCGUAUGCAGAGGCGGCAGCCUUCGGUGGCGCGAUAGGGCCAACGUUCUCAACUAUGACACGCAAAACGCGUGCUCCGUUGAGUGGAGUUUAUCAUG | ≤ -4.2
10 | GGAUCGUCUCGUUCUAACAAACAAGACAAAUCUGCCACAAAGCUUGAGAGCAUCUUCGCAGGCAGAGGCGGCUGCCUUCGGUGGCGCGAUAGCGCCAACGUUCUCAACUAUGACACGCAAAACGCGUGCUCCGUUGAAUGGAGUUUAUCAUG | ≤ -4.2
11 | GGAUCUUCUCGAUCUAACAAAAAAGACAAAUCUGCCACAAAGCUUCAGAGCAUCAUCGGAUGCAGAGGCGGCAGCCUUCGGUGGCGCGAUAGCGCCAACGUUCUCAACUAUGACACGCAAAACGCGUGCUCCGUUGAAUGGAGUUUAUCAUG | -0.931
12 | GGUUCUUCUCGAUCUAACAAAAAAGACUAAUCUGCCACAAAGCUUGAGAGCAUCUUUGGAUGCAGAGGCGGCAGGCUUCGGUGGCGCGAUAGCGCCAACGUUCUCAACUAUGACACGCAAAACGCGUGCUCCGUUGAAUGGAGUUUAUCAUG | ≤ -4.2
13 | GGAUCUUCUCGAUCUAUUAAACAAGACAAAUCUGCCACAAAGCUUGAGAGCAUCUUCGGAUGCAGAGGCGGCAGCCUUCGGUGGCGCGAUAGCGCCAACGUUCUCAACUAUGACACGCAAAACGCGUGCUCCGUUGAAUGGAGUUUAUCAUG | -1.32
14 | GGAUCUUCUCGAUCUAACAAAAAAGACAAAUCUGCCACAAAGCUUGAGAGCAUCUUCGGAUGCAGAGGCGGCAGGCUUCGGUGGCGUGAUAGCGCCAACGUUCUCAACUAUGACACGCAAAACGCGUGCUCCGUUGAAUGGAGUUUAUCAUG | -3.2
15 | GGAUCUUCUCGAUCUAACAAGAAAGACAAAUCUGCGACAAAGCUUGAGAGCACCUUCGGAUGCAGAGGCGGCAGCCUUCGGUGGCGCGAUAGCGCCAACGUUCUCAACUAUGACACGCAAAACGCGUGCUCCGUUGAAUGGAGUUUAUCAUG | -3.97
16 | GGAUCUUCCCGAUCUAACAAAAAAGACAAAUCUGCCACAAAGCUUGAGAGCAUCUUCAGAUGCAGAGGCGGCAGCCUUCGGUGGCGCGAUAGCGCCAUCGUUCUCAACUAUGACACGCAAAACGCGUGCUCCGUUGAAUGGAGUUUAUCAUG | ≤ -4.2
17 | GGAUCUUCUCGAUCUAACAAAAAAGACAAAUCUGCCACAAACCUUGAGAGCAUCUGCGGAUGCAGAGUCGGCAGCCUACGGUGGCGCGAUAGUGCCAACGUUCUCAACUAUGACACGCAAAACGCGUGCUCCGUUGAAUGGCGUUUAUCAUG | ≤ -4.2
18 | GGAUCUUCUCGAUCUAACAAUAAAGACAAAUCUGCCACAAAGCUUGAGAGCAUCUUCGGAUGCAGAGGCGGCAGCCUUCGGUGACGCGAUAGCGCCAACGUUCUCAACUAUGACACGCAAAACGCGUGCUCCGUUGAAUGGAGUUUAUCAUG | 0.266
19 | GGAUCUUCUCGAUCUAACAAAAAAGACAAAUCUGCCACAAAGCUUGAGAGCAUCUUCGGAUGCAGAGGCGGCAGCCUUCGGUGGCGUGAUAGCGCCAACGUUCUCAACUAUGACACGCAAAACGCGUGCUCCGUUGAAUGGAGUUUAUAAUG | -3.78
